In publication PMC3510510, “Structural insight of a concentration-dependent mechanism by which YdiV inhibits Escherichia coli flagellum biogenesis and motility” (Nucleic Acids Research, 2012):
Positions count from the first letter of the chain named.

T1: DCmut-1 (FlhDC complex with FlhC K42E, K45E) (E. coli, UniProt P0A8S9 1-116; P0ABY7 1-192, K42E | K45E)
T1 construct: FlhD, E. coli; FlhC, E. coli; Lys42 and Lys45 substituted by Glu; Probably carries the C-terminal His-tag on FlhC as the wild-type complex does; the methods say only that mutants were cloned into pGL01; source: E. coli, purified
T1 sequence 1: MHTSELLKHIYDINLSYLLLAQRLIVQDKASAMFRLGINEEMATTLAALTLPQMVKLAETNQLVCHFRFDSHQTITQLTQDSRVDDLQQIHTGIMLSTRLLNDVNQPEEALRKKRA
T1 sequence 2: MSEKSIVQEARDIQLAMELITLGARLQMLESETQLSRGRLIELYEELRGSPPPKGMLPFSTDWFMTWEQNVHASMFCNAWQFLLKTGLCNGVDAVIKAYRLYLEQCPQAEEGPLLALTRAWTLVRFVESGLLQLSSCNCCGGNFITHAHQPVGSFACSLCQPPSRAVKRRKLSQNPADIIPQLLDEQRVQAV

T2: DCmut-2 (FlhDC complex with FlhC R37E, R39E, K42E, K45E) (E. coli, UniProt P0A8S9 1-116; P0ABY7 1-192, R37E | R39E | K42E | K45E)
T2 construct: FlhD, E. coli; FlhC, E. coli, four substitutions; Probably carries the C-terminal His-tag on FlhC as the wild-type complex does; the methods say only that mutants were cloned into pGL01; source: E. coli, purified
T2 sequence 1: T1 sequence 1
T2 sequence 2: T1 sequence 2 with R37E, R39E

T3: FlhD4C2 complex (E. coli, UniProt P0A8S9 1-116; P0ABY7 1-192)
T3 sequence 1: T1 sequence 1
T3 sequence 2: T1 sequence 2 with E42K, E45K

B1: FlhD fragment 1–71aa (domain or fragment, E. coli, UniProt P0A8S9 1-71, looked up)
chain: MHTSELLKHIYDINLSYLLLAQRLIVQDKASAMFRLGINEEMATTLAALTLPQMVKLAETNQLVCHFRFDS
notes: FlhD, E. coli, residues 1-71; also called FlhD (1–71aa); source: E. coli, purified recombinant protein
B2: FlhD fragment 1–82aa (domain or fragment, E. coli, UniProt P0A8S9 1-82, looked up)
chain: MHTSELLKHIYDINLSYLLLAQRLIVQDKASAMFRLGINEEMATTLAALTLPQMVKLAETNQLVCHFRFDSHQTITQLTQDS
notes: FlhD, E. coli, residues 1-82; also called FlhD (1–82aa); source: E. coli, purified recombinant protein
B3: FlhD-His (natural protein, E. coli)
chain: T1 sequence 1
notes: FlhD, E. coli; the flhD gene was cloned into pET29b and pGL01; source: E. coli BL21(DE3): co-expressed with YdiV (in lysate); purified as bait for the pull-down
B4: FlhD fragment 1–98aa (domain or fragment, E. coli, UniProt P0A8S9 1-98, looked up)
chain: MHTSELLKHIYDINLSYLLLAQRLIVQDKASAMFRLGINEEMATTLAALTLPQMVKLAETNQLVCHFRFDSHQTITQLTQDSRVDDLQQIHTGIMLST
notes: FlhD, E. coli, residues 1-98; also called FlhD (1–98aa); source: E. coli, purified recombinant protein
B5: FlhD fragment 1–106aa (domain or fragment, E. coli, UniProt P0A8S9 1-106, looked up)
chain: MHTSELLKHIYDINLSYLLLAQRLIVQDKASAMFRLGINEEMATTLAALTLPQMVKLAETNQLVCHFRFDSHQTITQLTQDSRVDDLQQIHTGIMLSTRLLNDVNQ
notes: FlhD, E. coli, residues 1-106; also called FlhD (1–106aa); source: E. coli, purified recombinant protein
B6: YdiV (natural protein, E. coli)
chain: MKIFLENLYHSDCYFLPIRDNQQVLVGVELITHFSSEDGTVRIPTSRVIAQLTEEQHWQLFSEQLELLKSCQHFFIQHKLFAWLNLTPQVATLLLERDNYAGELLKYPFIELLINENYPHLNEGKDNRGLLSLSQVYPLVLGNLGAGNSTMKAVFDGLFTRVMLDKSFIQQQITHRSFEPFIRAIQAQISPCCNCIIAGGIDTAEILAQITPFDFHALQGCLWPAVPINQITTLVQR
notes: YdiV, E. coli; the ydiV gene was cloned into pET29b and pGL01; His-tag removal by PPase is stated for prey proteins of the pull-down; The crystal of YdiV alone (3TLQ) was phased with Se-Met-YdiV; also called native YdiV; wild-type YdiV; source: E. coli BL21(DE3), purified (Ni2+-NTA, Source-Q, Superdex 200)

Assays:
YdiV = biological target: B6; test: pull-down; His-tagged bait immobilised on Ni2+-NTA beads, prey with His-tag removed by PPase; 4°C, 30 min; 25 mM Tris-HCl pH 8.0, 100 mM NaCl; eluted with 250 mM imidazole; SDS-PAGE, Coomassie; settings: both partners purified
[1] = biological target: T1, DCmut-1 (FlhDC complex with FlhC K42E, …); test: as above; settings: both partners purified
[2] = biological target: T2, DCmut-2 (FlhDC complex with FlhC R37E, …); test: as above; settings: both partners purified
FlhD4C2 complex [3] = biological target: T3, FlhD4C2 complex; test: cell-based or functional assay
FlhD4C2 complex [4] = biological target: T3, FlhD4C2 complex; test: SEC; YdiV and FlhD4C2 mixed at molar ratios 5:1, 4:1, 3:1, 2:1 or 1:1 for 10 min at room temperature; Superdex 200; fractions on SDS-PAGE; settings: both partners purified

Row | binding result (YdiV) | Binder | other results
1 | binds | B1 | 
2 | binds | B2 | 
3 | binds | B3 | 
4 | binds | B4 | 
5 | binds | B5 | 
6 |  | B6 | binding result [1]: binds; binding result [2]: binds; EMSA: DNA binding of FlhD4C2 (49-bp flhB promoter) with 5-fold excess of YdiV and at different molar ratios of YdiV:FlhD4C2 (FlhD4C2 complex [3]): > 3 molar ratio YdiV:FlhD4C2; stoichiometry N (FlhD4C2 complex [4]): 4 YdiV per FlhD4C2
